Reference: the supplement of paper PMC11316812
± gives the standard deviation of the averaged measurements.

Columns and labels:
MCF7 = experiment: percentage of EdU-negative (G0-arrested) nuclei per well, 72 h; higher = more G0 arrest; settings: reference: sequence is the full UniProt precursor, the tested protein was the secreted form or ectodomain
hTERT-HMEC = experiment: as above; settings: reference: sequence is the full UniProt precursor, the tested protein was the secreted form or ectodomain
[1] = protein concentration 0.00975 µM
[2] = protein concentration 0.0975 µM
[3] = protein concentration 0.0225 µM
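Note: secreted proteins added to cultured cells, EdU pulse at the end, nuclei found by Hoechst imaging, EdU status from nuclear versus surrounding ring intensity ratio, PBS as neutral control.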

| Sequence | percentage of EdU-negative (MCF7; [3]) [%] | percentage of EdU-negative (MCF7; protein concentration 0.225 µM) [%] | percentage of EdU-negative (hTERT-HMEC; [3]) [%] | percentage of EdU-negative (hTERT-HMEC; protein concentration 0.225 µM) [%] | further results |
| --- | --- | --- | --- | --- | --- |
| MVAATVAAAWLLLWAAACAQQEQDFYDFKAVNIRGKLVSLEKYRGSVSLVVNVASECGFTDQHYRALQQLQRDLGPHHFNVLAFPCNQFGQQEPDSNKEIESFARRTYSVSFPMFSKIAVTGTGAHPAFKYLAQTSGKEPTWNFWKYLVAPDGKVVGAWDPTVSVEEVRPQITALVRKLILLKREDL [Q96SL4] | – | – | – | – | percentage of EdU-negative (MCF7; [1]): 25.2 ± 2%; percentage of EdU-negative (MCF7; [2]): 27.1 ± 1.4%; percentage of EdU-negative (hTERT-HMEC; [1]): 4.59 ± 0.052%; percentage of EdU-negative (hTERT-HMEC; [2]): 5.66 ± 0.28% |
| MVAGSDAGRALGVLSVVCLLHCFGFISCFSQQIYGVVYGNVTFHVPSNVPLKEVLWKKQKDKVAELENSEFRAFSSFKNRVYLDTVSGSLTIYNLTSSDEDEYEMESPNITDTMKFFLYVLESLPSPTLTCALTNGSIEVQCMIPEHYNSHRGLIMYSWDCPMEQCKRNSTSIYFKMENDLPQKIQCTLSNPLFNTTSSIILTTCIPSSGHSRHRYALIPIPLAVITTCIVLYMNGILKCDRKPDRTNSN | 27.3 ± 0.7 | 26.7 ± 1.6 | 5.39 ± 0.14 | 5.59 ± 0.33 | – |
| MVAPGLVLGLVLPLILWADRSAGIGFRFASYINNDMVLQKEPAGAVIWGFGTPGATVTVTLRQGQETIMKKVTSVKAHSDTWMVVLDPMKPGGPFEVMAQQTLEKINFTLRVHDVLFGDVWLCSGQSNMQMTVLQIFNATRELSNTAAYQSVRILSVSPIQAEQELEDLVAVDLQWSKPTSENLGHGYFKYMSAVCWLFGRHLYDTLQYPIGLIASSWGGTPIEAWSSGRSLKACGVPKQGSIPYDSVTGPSKHSVLWNAMIHPLCNMTLKGVVWYQGESNINYNTDLYNCTFPALIEDWRETFHRGSQGQTERFFPFGLVQLSSDLSKKSSDDGFPQIRWHQTADFGYVPNPKMPNTFMAVAMDLCDRDSPFGSIHPRDKQTVAYRLHLGARALAYGEKNLTFEGPLPEKIELLAHKGLLNLTYYQQIQVQKKDNKIFEISCCSDHRCKWLPASMNTVSTQSLTLAIDSCHGTVVALRYAWTTWPCEYKQCPLYHPSSALPAPPFIAFITDQGPGHQSNVAK [Q9HAT2] | 24.9 ± 0.68 | 24.8 ± 0.63 | 5.13 ± 1 | 7.82 ± 1.7 | – |
| MVAPKSHTDDWAPGPFSSKPQRSQLQIFSSVLQTSLLFLLMGLRASGKDSAPTVVSGILGGSVTLPLNISVDTEIENVIWIGPKNALAFARPKENVTIMVKSYLGRLDITKWSYSLCISNLTLNDAGSYKAQINQRNFEVTTEEEFTLFVYEQLQEPQVTMKSVKVSENFSCNITLMCSVKGAEKSVLYSWTPREPHASESNGGSILTVSRTPCDPDLPYICTAQNPVSQRSSLPVHVGQFCTDPGASRGGTTGETVVGVLGEPVTLPLALPACRDTEKVVWLFNTSIISKEREEAATADPLIKSRDPYKNRVWVSSQDCSLKISQLKIEDAGPYHAYVCSEASSVTSMTHVTLLIYRRLRKPKITWSLRHSEDGICRISLTCSVEDGGNTVMYTWTPLQKEAVVSQGESHLNVSWRSSENHPNLTCTASNPVSRSSHQFLSENICSGPERNTKLWIGLFLMVCLLCVGIFSWCIWKRKGRCSVPAFCSSQAEAPADTPEPTAGHTLYSVLSQGYEKLDTPLRPARQQPTPTSDSSSDSNLTTEEDEDRPEVHKPISGRYEVFDQVTQEGAGHDPAPEGQADYDPVTPYVTEVESVVGENTMYAQVFNLQGKTPVSQKEESSATIYCSIRKPQVVPPPQQNDLEIPESPTYENFT [Q9HBG7] | – | – | – | – | percentage of EdU-negative (MCF7; protein concentration 0.02 µM): 25.2 ± 0.84%; percentage of EdU-negative (MCF7; protein concentration 0.2 µM): 29.3 ± 0.77%; percentage of EdU-negative (hTERT-HMEC; protein concentration 0.02 µM): 4.82 ± 0.27%; percentage of EdU-negative (hTERT-HMEC; protein concentration 0.2 µM): 7.12 ± 0.12% |
| MVATKTFALLLLSLFLAVGLGEKKEGHFSALPSLPVGSHAKVSSPQPRGPRYAEGTFISDYSIAMDKIHQQDFVNWLLAQKGKKNDWKHNITQREARALELASQANRKEEEAVEPQSSPAKNPSDEDLLRDLLIQELLACLLDQTNLCRLRSR | 26.1 ± 1.5 | 24.3 ± 2.4 | 4.89 ± 0.063 | 6.12 ± 0.68 | – |
| MVDGVMILPVLIMIALPSPSMEDEKPKVNPKLYMCVCEGLSCGNEDHCEGQQCFSSLSINDGFHVYQKGCFQVYEQGKMTCKTPPSPGQAVECCQGDWCNRNITAQLPTKGKSFPGTQNFHLEVGLIILSVVFAVCLLACLLGVALRKFKRRNQERLNPRDVEYGTIEGLITTNVGDSTLADLLDHSCTSGSGSGLPFLVQRTVARQITLLECVGKGRYGEVWRGSWQGENVAVKIFSSRDEKSWFRETELYNTVMLRHENILGFIASDMTSRHSSTQLWLITHYHEMGSLYDYLQLTTLDTVSCLRIVLSIASGLAHLHIEIFGTQGKPAIAHRDLKSKNILVKKNGQCCIADLGLAVMHSQSTNQLDVGNNPRVGTKRYMAPEVLDETIQVDCFDSYKRVDIWAFGLVLWEVARRMVSNGIVEDYKPPFYDVVPNDPSFEDMRKVVCVDQQRPNIPNRWFSDPTLTSLAKLMKECWYQNPSARLTALRIKKTLTKIDNSLDKLKTDC | 26.7 ± 0.75 | 27.2 ± 0.41 | 5.41 ± 0.37 | 5.41 ± 1.3 | – |
